How the values were obtained:
C2 from rat = target: T1, C2 from rat (rat, UniProt Q8CIP8 19-758); assay: not described
T1 sequence: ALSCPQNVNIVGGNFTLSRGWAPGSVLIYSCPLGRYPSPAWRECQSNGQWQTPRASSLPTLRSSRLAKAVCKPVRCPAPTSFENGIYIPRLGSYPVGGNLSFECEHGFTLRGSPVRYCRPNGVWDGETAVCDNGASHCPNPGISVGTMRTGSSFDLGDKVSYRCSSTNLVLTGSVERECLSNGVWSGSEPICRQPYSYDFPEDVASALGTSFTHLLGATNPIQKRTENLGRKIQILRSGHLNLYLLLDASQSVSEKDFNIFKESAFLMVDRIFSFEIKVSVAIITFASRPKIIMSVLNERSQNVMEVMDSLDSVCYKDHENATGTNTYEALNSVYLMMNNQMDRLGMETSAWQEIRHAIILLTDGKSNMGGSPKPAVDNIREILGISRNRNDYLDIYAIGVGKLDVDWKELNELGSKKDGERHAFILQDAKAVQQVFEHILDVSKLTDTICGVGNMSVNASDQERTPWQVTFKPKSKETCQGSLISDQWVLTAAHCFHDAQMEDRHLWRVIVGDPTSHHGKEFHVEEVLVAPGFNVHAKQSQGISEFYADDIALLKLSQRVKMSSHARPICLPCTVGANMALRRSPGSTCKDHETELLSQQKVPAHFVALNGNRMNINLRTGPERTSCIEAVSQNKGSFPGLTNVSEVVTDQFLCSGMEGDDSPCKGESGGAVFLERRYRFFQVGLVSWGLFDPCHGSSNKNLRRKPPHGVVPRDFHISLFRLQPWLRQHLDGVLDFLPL

C2 from rabbit = target: T2, C2 from rabbit (rabbit, UniProt G1SS66 21-744); assay: not described
T2 sequence: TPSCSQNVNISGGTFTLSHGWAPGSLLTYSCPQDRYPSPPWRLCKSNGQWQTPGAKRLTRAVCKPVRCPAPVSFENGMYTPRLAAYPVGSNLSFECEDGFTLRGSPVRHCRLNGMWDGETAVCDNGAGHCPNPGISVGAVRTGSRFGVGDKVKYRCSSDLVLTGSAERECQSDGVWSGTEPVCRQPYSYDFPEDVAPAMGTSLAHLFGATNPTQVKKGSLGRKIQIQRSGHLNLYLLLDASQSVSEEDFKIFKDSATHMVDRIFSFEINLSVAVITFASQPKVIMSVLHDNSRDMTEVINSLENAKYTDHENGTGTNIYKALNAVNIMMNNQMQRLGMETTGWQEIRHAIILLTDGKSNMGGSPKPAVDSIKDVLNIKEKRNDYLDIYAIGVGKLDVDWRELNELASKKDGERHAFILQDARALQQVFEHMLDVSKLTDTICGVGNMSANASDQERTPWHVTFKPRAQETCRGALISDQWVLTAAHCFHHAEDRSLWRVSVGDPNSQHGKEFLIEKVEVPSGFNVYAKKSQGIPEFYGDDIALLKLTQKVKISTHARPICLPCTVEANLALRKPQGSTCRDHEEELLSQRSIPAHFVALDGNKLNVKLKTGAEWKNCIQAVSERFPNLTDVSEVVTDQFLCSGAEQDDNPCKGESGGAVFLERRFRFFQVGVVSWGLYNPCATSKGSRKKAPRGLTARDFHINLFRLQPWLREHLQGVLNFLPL

C2 from mouse = target: T3, C2 from mouse (mouse, UniProt P21180 19-760, limits assumed); assay: not described
T3 sequence (looked up): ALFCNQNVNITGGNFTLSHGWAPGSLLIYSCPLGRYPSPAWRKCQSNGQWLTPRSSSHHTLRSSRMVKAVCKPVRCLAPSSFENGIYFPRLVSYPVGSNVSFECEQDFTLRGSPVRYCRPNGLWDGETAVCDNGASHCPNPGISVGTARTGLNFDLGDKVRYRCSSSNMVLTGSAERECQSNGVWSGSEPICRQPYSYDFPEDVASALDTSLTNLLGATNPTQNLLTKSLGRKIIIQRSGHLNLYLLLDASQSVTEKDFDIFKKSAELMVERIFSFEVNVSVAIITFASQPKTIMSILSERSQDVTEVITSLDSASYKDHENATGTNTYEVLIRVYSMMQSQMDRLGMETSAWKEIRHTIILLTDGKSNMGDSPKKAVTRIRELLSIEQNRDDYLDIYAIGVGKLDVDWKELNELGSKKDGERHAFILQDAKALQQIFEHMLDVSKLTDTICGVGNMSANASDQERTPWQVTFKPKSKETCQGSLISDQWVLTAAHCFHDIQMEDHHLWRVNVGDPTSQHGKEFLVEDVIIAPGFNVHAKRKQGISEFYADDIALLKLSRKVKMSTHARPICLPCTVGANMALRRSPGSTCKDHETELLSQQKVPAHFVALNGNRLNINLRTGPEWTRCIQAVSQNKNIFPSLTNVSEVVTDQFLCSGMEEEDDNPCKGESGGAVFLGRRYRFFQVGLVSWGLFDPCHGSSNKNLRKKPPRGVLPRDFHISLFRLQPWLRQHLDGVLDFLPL

[1] = target: T4, human complement component 2 (C2) (human, UniProt P06681 21-752, limits assumed); assay: method not described; binding stated to be pH- and Ca2+-dependent; lower end of the printed range for human C2; pH/Ca2+ condition not stated
T4 construct: also called human C2
T4 sequence (looked up): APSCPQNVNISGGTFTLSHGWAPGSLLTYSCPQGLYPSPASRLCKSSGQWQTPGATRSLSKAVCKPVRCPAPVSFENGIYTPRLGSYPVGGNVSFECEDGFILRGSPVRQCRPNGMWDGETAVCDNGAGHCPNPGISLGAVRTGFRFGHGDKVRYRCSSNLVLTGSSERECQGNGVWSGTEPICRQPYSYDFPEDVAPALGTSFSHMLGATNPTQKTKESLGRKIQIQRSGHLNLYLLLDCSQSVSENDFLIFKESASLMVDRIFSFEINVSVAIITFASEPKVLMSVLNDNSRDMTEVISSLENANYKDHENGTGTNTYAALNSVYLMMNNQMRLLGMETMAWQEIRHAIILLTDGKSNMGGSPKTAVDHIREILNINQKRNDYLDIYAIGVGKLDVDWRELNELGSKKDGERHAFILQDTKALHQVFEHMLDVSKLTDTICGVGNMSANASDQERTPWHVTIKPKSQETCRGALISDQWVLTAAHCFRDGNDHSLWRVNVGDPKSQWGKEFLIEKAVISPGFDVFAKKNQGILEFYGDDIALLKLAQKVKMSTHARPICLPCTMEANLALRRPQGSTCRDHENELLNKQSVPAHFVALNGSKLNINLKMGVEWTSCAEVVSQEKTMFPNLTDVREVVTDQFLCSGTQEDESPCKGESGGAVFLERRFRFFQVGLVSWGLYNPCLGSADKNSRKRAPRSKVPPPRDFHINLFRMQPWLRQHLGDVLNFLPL

cynomolgus monkey C2 = target: T5, cynomolgus monkey C2 (cynomolgus monkey, UniProt G8F3W0 21-752); assay: method not described; binding stated to be pH- and Ca2+-dependent; lower end of the printed range for cynomolgus C2; pH/Ca2+ condition not stated
T5 sequence: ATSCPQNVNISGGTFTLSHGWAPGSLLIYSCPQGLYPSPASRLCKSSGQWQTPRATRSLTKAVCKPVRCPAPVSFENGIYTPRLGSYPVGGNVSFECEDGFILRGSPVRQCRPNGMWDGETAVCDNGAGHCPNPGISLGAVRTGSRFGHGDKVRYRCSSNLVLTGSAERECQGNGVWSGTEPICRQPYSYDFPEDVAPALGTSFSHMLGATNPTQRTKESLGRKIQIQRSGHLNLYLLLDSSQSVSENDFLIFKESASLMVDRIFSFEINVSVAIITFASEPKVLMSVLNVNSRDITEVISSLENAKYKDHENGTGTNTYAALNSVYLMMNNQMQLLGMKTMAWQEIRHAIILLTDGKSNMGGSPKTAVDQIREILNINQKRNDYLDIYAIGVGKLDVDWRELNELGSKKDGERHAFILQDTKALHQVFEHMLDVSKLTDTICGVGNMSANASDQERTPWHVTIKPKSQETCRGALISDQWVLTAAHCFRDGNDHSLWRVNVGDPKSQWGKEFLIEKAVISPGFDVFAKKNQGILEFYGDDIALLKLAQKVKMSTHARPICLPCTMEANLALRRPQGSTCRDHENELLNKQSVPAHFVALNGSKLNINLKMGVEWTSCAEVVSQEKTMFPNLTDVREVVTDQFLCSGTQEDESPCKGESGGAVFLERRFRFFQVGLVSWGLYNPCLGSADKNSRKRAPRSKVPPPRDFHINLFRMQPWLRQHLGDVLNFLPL

binding result (C2 from rat): no binding
binding result (C2 from rabbit): no binding
binding result (C2 from mouse): no binding
Kd [1]: 0.109 to 2.02 nM
Kd (cynomolgus monkey C2): 0.056 to 0.13 nM
B1: ARGX-117 (antibody, human IgG1, kappa, L234A L235A, V domains shown)
VH: EVQLVQSGAEVKKPGASVKVSCKASGYTFTDYNMDWVRQATGQGLEWIGDINPNYESTGYNQKFKGRATMTVDKSISTAYMELSSLRSEDTAVYYCAREDDHDAFAYWGQGTLVTVSS
VL: DNVLTQSPDSLAVSLGERATISCRASKSVRTSGYNYMHWYQQKPGQPPKLLIYLASNLKSGVPDRFSGSGSGTDFTLTISSLQAEDAATYYCQHSRELPYTFGQGTKLEIKR
notes: also called anti-C2 antibody

— patent US20250263476A1 (ARGENX, published 2025)
